What was measured:
[1] = biological target: complement Factor D (fD) in C1q-depleted human serum (Homo sapiens) (UniProt P00746); assay: inhibition; conditions: hemolysis; non-specific control oligo
[2] = biological target: complement Factor D (fD) (Homo sapiens) (UniProt P00746); assay: inhibition; conditions: control oligo
[3] = biological target: complement Factor D (fD) (Homo sapiens) (UniProt P00746); assay: flow; conditions: 2'-F G, 2'-OMe A,C,U, 37 C
[4] = SB1T, 100 nM AFD Fab reduces signal about 75-90%

complement Factor D (fD) (Homo sapiens), sequence (P00746 26-253): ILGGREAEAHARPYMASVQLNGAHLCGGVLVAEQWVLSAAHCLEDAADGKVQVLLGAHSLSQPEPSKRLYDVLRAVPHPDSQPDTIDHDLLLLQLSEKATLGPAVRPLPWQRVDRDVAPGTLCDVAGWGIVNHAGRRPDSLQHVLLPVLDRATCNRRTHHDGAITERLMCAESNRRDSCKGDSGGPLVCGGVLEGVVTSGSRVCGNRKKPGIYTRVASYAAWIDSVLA
complement Factor D (fD) in C1q-depleted human serum (Homo sapiens), sequence (P00746 26-253): as above

C8 non-specific control oligo
IC50 [1]: > 160 nM
activity (% esterase activity) [2]: 105

GGGAGUGUGUACGAGGCAUUAGGCCGCCNNNNNNNNNNNNNNNNNNNNNNNNNNNNNNGGCGGCUUUGAUACUUGAUCGCCCUAGAAGC [N30S library round 6]
Kd ([3]; SB1T with BSA and ssDNA, bead-immobilized fD): 34.4 nM

GGGAGUGUGUACGAGGCAUUAGGCCGCCNNNNNNNNNNNNNNNNNNNNNNNNNNNNNNGGCGGCUUUGAUACUUGAUCGCCCUAGAAGC [N30S library round 7]
Kd [3, 4]: 45.1 nM

GGGAGUGUGUACGAGGCAUUAGGCCGCCNNNNNNNNNNNNNNNNNNNNNNNNNNNNNNGGCGGCUUUGAUACUUGAUCGCCCUAGAAGC [N30S library round 8]
Kd [3, 4]: 8.8 nM
